# Source: PMC9778525
# Key:
# [1] = molecular target: N-terminus His-tagged annexin V (human) (UniProt P08758); test: high-speed atomic force microscopy (HS-AFM); 1 uM annexin V added to supported lipid bilayers (DOPC:DOPS:biotinyl-DOPE = 7:2:1) on mica; 10 mM HEPES-NaOH pH 7.0, 2 mM CaCl2, 150 mM NaCl; trimers and 2D crystal lattice (p6) on the membrane
# [2] = molecular target: annexin V without any residual amino acids (human) (UniProt P08758); test: as above
stoichiometry N [1],stoichiometry N [2],Substance
3,–,N-terminus His-tagged annexin V (from UniProt P08758 1-320) (natural protein)
–,3,annexin V without any residual amino acids (from UniProt P08758 1-320) (natural protein)
